{
  "source": "paper PMC12445000",
  "about": "“Domain-Specific DNA Binding Activities of BRCA1 Reveal Substrate Preferences for Homologous Recombination and Telomere Regulation”",
  "binders": {"B1": {"name": "Bioss60R (ssDNA) (ssDNA)", "DNA": "CCATGGCTCCTGAGCTAGCTGCAGTAGCCTAAAGGATGAAACTAGGATCTTATGCTCCAT"}, "B2": {"name": "Biods60R (dsDNA) (dsDNA)", "DNA 1": "CCATGGCTCCTGAGCTAGCTGCAGTAGCCTAAAGGATGAAACTAGGATCTTATGCTCCAT", "DNA 2": "ATGGAGCATAAGATCCTAGTTTCATCCTTTAGGCTACTGCAGCTAGCTCAGGAGCCATGG"}},
  "key": {"BRCA1 DBD1": {"target": "BRCA1 DBD1 (human, UniProt P38398 330-554)", "sequence (P38398 330-554)": "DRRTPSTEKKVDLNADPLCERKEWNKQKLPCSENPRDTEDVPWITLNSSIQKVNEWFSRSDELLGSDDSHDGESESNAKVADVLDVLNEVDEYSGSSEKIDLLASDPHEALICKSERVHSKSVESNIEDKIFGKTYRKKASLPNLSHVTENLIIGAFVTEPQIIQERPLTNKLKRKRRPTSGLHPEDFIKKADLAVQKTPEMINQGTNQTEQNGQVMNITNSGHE", "assay": "BLI; 150 mM KCl; BLI (BLItz, SAX sensors, immobilized biotin-DNA) in Buffer H: 20 mM HEPES pH 7.5, 150 mM KCl, 5 mM TCEP, 5% glycerol, 25 C; steady-state 1:1 fit; errors 95% CI, n=3", "conditions": "protein: recombinant, tags: Ni-NTA purified (details not given)"}, "BRCA1 DBD2": {"target": "BRCA1 DBD2 (human, UniProt P38398 894-1057)", "sequence (P38398 894-1057)": "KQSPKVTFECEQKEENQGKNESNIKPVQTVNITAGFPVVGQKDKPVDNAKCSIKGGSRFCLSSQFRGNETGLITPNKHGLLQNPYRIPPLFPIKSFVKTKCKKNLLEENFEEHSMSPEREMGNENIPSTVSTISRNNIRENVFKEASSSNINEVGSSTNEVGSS", "assay": "BLI; 150 mM KCl; BLI (BLItz, SAX sensors, immobilized biotin-DNA) in Buffer H: 20 mM HEPES pH 7.5, 150 mM KCl, 5 mM TCEP, 5% glycerol, 25 C; steady-state 1:1 fit; errors 95% CI, n=3", "conditions": "protein: recombinant, tags: Ni-NTA purified (details not given)"}, "[1]": {"conditions": "label: 5' biotin on strand 1, 5' Cy3 on strand 2, blunt"}},
  "data": [
    {"binder": "B1", "values": [
      {"measurement": "Kd", "setting": "BRCA1 DBD1; label: 5' biotin", "value": "68.4 ± 33.8", "unit": "nM"},
      {"measurement": "Kd", "setting": "BRCA1 DBD2; label: 5' biotin", "value": "40.8 ± 3.7", "unit": "nM"}
    ]},
    {"binder": "B2", "values": [
      {"measurement": "Kd", "setting": "BRCA1 DBD1; [1]", "value": "35.5 ± 9", "unit": "nM"},
      {"measurement": "Kd", "setting": "BRCA1 DBD2; [1]", "value": "44.6 ± 6", "unit": "nM"}
    ]},
    {"binder": "TTAGGGTTAGGGTTAGGGTTAGGG (structured_DNA)", "note": "[BioG4Telo (G4)]", "values": [
      {"measurement": "Kd", "setting": "BRCA1 DBD1; label: 5' biotin, G4", "value": "67.2 ± 12.5", "unit": "nM"},
      {"measurement": "Kd", "setting": "BRCA1 DBD2; label: 5' biotin, G4", "value": "34.7 ± 16.1", "unit": "nM"}
    ]}
  ]
}
